Test results from publication PMC7641913.

Molecular target: T1, His-Fur (Vibrio cholerae C7258 (El Tor; Peru, 1991)) (UniProt P0C6C8)
T1 sequence: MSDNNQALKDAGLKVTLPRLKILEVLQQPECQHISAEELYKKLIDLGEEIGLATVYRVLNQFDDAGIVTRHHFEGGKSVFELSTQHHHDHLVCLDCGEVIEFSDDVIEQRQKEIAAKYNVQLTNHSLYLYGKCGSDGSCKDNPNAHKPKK
Test: EMSA
Settings: 10 mM Tris-HCl pH 7.5, 50 mM KCl, 1 mM MgCl2, 100 uM MnCl (so in the source), 0.5 mM DTT, 0.05 mg/ml BSA, 10 mg/ml salmon sperm DNA; room temperature, 20 min (EMSA …)

For “CACTTCTTCGCCTTCTTTGATTGCGCCAGTACGGCGAATATCCAAACGAACAGAAGCGTAGAATTTCAGTGCGTTACCGCCAGTGGTGGTTTCTGGGTTACCAAACATCACACCAATCTT (double strand) [recA fragment (negative control)]”, the binding was “no binding”.
